The results in this text go back to US20170015742A1 (published 2017).

Test [1] concerns the target recombinant human VEGF165 (human, UniProt P15692 207-395). Briefly: cell-based or functional assay.
Test [2] has as its target recombinant human PDGF-BB (human, UniProt P01127 82-190). Briefly: cell-based or functional assay.
Test [3] concerns the target T1, recombinant human PDGF-BB (human, UniProt P01127 82-190, biotin-labelled in the binding and competition ELISAs (sites not given)). Briefly: cell-based or functional assay.
Test [4] deals with T1, recombinant human PDGF-BB. Put plainly: Biacore SPR, antibody captured by anti-human Fc, PDGF-BB injected. As for the experimental part: For example, approximately 9000 RU of goat anti-human Fc specific polyclonal antibody (Thermo Fisher Scientific Inc., Rockford, Ill.) diluted in 10 mM sodium acetate (pH 4.5) is directly immobilized across a CM5 research grade biosensor chip using a standard amine coupling kit according to manufacturer's instructions and procedures at 25 μg/ml. Unreacted moieties on the biosensor surface were blocked with ethanolamine. For kinetic analysis, rate equations derived from the 1:1 Langmuir binding model were fitted simultaneously to multiple antigen injections (using global fit analysis) with the use of Scrubber 2 (BioLogic Software), Biacore Biaevaluation 4.0.1 software or Biacore T100 Evaluation software. Purified antibodies or DVD-Ig molecules were diluted in running buffer for capture across goat anti-human Fc reaction surfaces. Antibodies or DVD-Ig molecules to be captured as a ligand (1 μg/ml) were injected over reaction matrices at a flow rate of 10 μl/minute. During the assay, all measurements were referenced against the capture surface alone (i.e., with no captured antibody or DVD-Ig molecule). […] The equilibrium dissociation constant KD (M) of the reaction between antibodies and the target antigen was then calculated from the kinetic rate constants by the following formula: KD=Koff/Kₒₙ. Binding was recorded as a function of time and kinetic rate constants were calculated.
For orientation: Surface plasmon resonance follows binding to a sensor surface in real time, without labels.

A value given as a limit tells only on which side of the number the result lay.

Sequence of recombinant human VEGF165 (P15692 other isoform, or with tags, fused parts or gaps limits assumed): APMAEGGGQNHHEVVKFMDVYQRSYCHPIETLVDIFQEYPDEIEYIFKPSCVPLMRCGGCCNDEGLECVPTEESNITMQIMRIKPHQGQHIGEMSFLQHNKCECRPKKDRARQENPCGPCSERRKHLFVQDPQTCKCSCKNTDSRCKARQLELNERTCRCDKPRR
Sequence of recombinant human PDGF-BB (human, UniProt P01127 82-190) (P01127 82-190 limits assumed): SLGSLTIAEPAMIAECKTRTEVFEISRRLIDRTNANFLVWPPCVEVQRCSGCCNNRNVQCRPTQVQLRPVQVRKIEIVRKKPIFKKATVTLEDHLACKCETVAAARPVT
T1 sequence (P01127 82-190 limits assumed): as above

B1: 3E2.1_GS_1B10.1 (PR-1612502) (bispecific antibody, human IgG1, kappa, L234A L235A)
heavy: EVQLVQSGAEVKKPGSSVKVSCKASGYTFTESYMYWVKQAPGQGLELIGRIDPEDGSTDYVEKFKNKATLTADKSTSTAYMELSSLRSEDTAVYFCARFGARSYFYPMDAWGQGTTVTVSSGGGGSGGGGSEVQLVESGGGLVQPGGSLRLSCAASGFSFSKYDMAWFRQAPGKGLEWVASITTSGVGTYYRDSVKGRFTVSRDNAKSTLYLQMNSLRAEDTAVYYCARGYGAMDAWGQGTTVTVSSASTKGPSVFPLAPSSKSTSGGTAALGCLVKDYFPEPVTVSWNSGALTSGVHTFPAVLQSSGLYSLSSVVTVPSSSLGTQTYICNVNHKPSNTKVDKKVEPKSCDKTHTCPPCPAPEAAGGPSVFLFPPKPKDTLMISRTPEVTCVVVDVSHEDPEVKFNWYVDGVEVHNAKTKPREEQYNSTYRVVSVLTVLHQDWLNGKEYKCKVSNKALPAPIEKTISKAKGQPREPQVYTLPPSREEMTKNQVSLTCLVKGFYPSDIAVEWESNGQPENNYKTTPPVLDSDGSFFLYSKLTVDKSRWQQGNVFSCSVMHEALHNAYTQKSLSLSPGK
light: ETVLTQSPATLSLSPGERATLSCRASESVSTLMHWYQQKPGQQPRLLIYGASNLESGVPARFSGSGSGTDFTLTISSLEPEDFAVYFCQQSWNDPWTFGGGTKVEIKGGSGGGGSGGDIQMTQSPSSLSASVGDRVTITCKASQDIDDYLSWYQQKPGKSPKLVIYAATRLADGVPSRFSGSGSGTDYTLTISSLQPEDFATYYCLQSSSTPWTFGGGTKVEIKRTVAAPSVFIFPPSDEQLKSGTASVVCLLNNFYPREAKVQWKVDNALQSGNSQESVTEQDSKDSTYSLSSTLTLSKADYEKHKVYACEVTHQGLSSPVTKSFNRGEC
With B1, the “Potency IC50 (nM), HMVEC-d hVEGF165 (proliferation)” value (shortened to “Potency IC50 (nM), HMVEC-d hVEGF165”) in test [1] was 1.78 nM. Besides, in test [2], the “Potency IC50 (nM), NIH-3T3 hPDGF-BB (proliferation)” value (“Potency IC50 (nM), NIH-3T3 hPDGF-BB” for short) was determined as 0.187 nM.

B2: chBFU-3E2-B9-B8 (antibody, human IgG1, V domains shown)
VH: EVQLQQSGPELQRPGASVKLSCKASGYTFTESYMYWVKQRPEQSLELIGRIDPEDGSTDYVEKFKNKATLTADTSSNTAYMQLSSLTSEDSATYFCARFGARSYFYPMDAWGQGTSVTVSS
VL: DTVLTQPPALAVSPGERVSISCRASESVSTLMHWYQQKPGQQPRLLIYGASNLESGVPARFSGSGSGTDFTLTIDPVEADDTATYFCQQSWNDPWTFGGGTKLELK
The term Kd denotes the free concentration of one partner at which half of the binding sites on the other are occupied at equilibrium, for simple one-to-one binding. As usually defined, the koff is the rate constant with which the complex falls apart. In general, kon refers to the rate constant with which the complex forms. In the case of B2, the “huPDGF-BB Neutralization Potency (nM) in NIH-3T3 Cells” value in test [3] is 0.099 nM. In test [4], the Kd is ≤ 0.019 nM, the koff came to 0.00019 s⁻¹ and the association rate constant (kon) is ≥ 1e+07 M⁻¹ s⁻¹.

B3: chBFU-11A8-D6-C3 (antibody, human IgG1, V domains shown)
VH: EVQLQQSGPELQRPGASVKLSCKASGYTFTESYIYWVKQRPEQSLELIGRIDPEDGSTDYVEKFKNKATLTADTSSNTAYMQLSSLTSEDTATYFCARFGARSYFYPMDAWGQGTSVTVSS
VL: DTVLTQSPTLAVSPGERVSIPCRASESVSTLMHWYQQKPGQQPRLLIYGASNLESGVPARFSGSGSGTDFTLTIDPVEADDTATYFCQQSWNDPWTFGGGTKLELK
As to B3, in test [3], the “huPDGF-BB Neutralization Potency (nM) in NIH-3T3 Cells” value is 0.086 nM. For the same molecule, in test [4], the Kd was ≤ 0.015 nM, the koff worked out at 0.00015 s⁻¹ and the association rate constant (kon) is ≥ 1e+07 M⁻¹ s⁻¹.

B4: 3E2.1_GS_9E10.1 (PR-1612500) (bispecific antibody, human IgG1, kappa, L234A L235A)
heavy: EVQLVQSGAEVKKPGSSVKVSCKASGYTFTESYMYWVKQAPGQGLELIGRIDPEDGSTDYVEKFKNKATLTADKSTSTAYMELSSLRSEDTAVYFCARFGARSYFYPMDAWGQGTTVTVSSGGGGSGGGGSEIQLVQSGSELKKPGASVKVSCKASGYTFTNYGMYWVKQAPGQGLEYMGWIDTETGRPTYADDFKGRFVFSLDTSVSTAYLQISSLKAEDTAVYFCARWSGDTTGIRGPWFAYWGQGTLVTVSSASTKGPSVFPLAPSSKSTSGGTAALGCLVKDYFPEPVTVSWNSGALTSGVHTFPAVLQSSGLYSLSSVVTVPSSSLGTQTYICNVNHKPSNTKVDKKVEPKSCDKTHTCPPCPAPEAAGGPSVFLFPPKPKDTLMISRTPEVTCVVVDVSHEDPEVKFNWYVDGVEVHNAKTKPREEQYNSTYRVVSVLTVLHQDWLNGKEYKCKVSNKALPAPIEKTISKAKGQPREPQVYTLPPSREEMTKNQVSLTCLVKGFYPSDIAVEWESNGQPENNYKTTPPVLDSDGSFFLYSKLTVDKSRWQQGNVFSCSVMHEALHNAYTQKSLSLSPGK
light: ETVLTQSPATLSLSPGERATLSCRASESVSTLMHWYQQKPGQQPRLLIYGASNLESGVPARFSGSGSGTDFTLTISSLEPEDFAVYFCQQSWNDPWTFGGGTKVEIKGGSGGGGSGGDIRMTQSPSSLSASVGDRVTIECLASEDIYSDLAWYQQKPGKSPKLLIYNANGLQNGVPSRFSGSGSGTDYSLTISSLQPEDVATYFCQQYNYFPGTFGQGTKLEIKRTVAAPSVFIFPPSDEQLKSGTASVVCLLNNFYPREAKVQWKVDNALQSGNSQESVTEQDSKDSTYSLSSTLTLSKADYEKHKVYACEVTHQGLSSPVTKSFNRGEC
In the case of B4, the “Potency IC50 (nM), HMVEC-d hVEGF165” value in test [1] came to 0.133 nM. Also, in test [2], the “Potency IC50 (nM), NIH-3T3 hPDGF-BB” value turned out to be 0.394 nM.

B5: 3E2.1_GS_9E10.6 (PR-1612501) (bispecific antibody, human IgG1, kappa, L234A L235A)
heavy: EVQLVQSGAEVKKPGSSVKVSCKASGYTFTESYMYWVKQAPGQGLELIGRIDPEDGSTDYVEKFKNKATLTADKSTSTAYMELSSLRSEDTAVYFCARFGARSYFYPMDAWGQGTTVTVSSGGGGSGGGGSEVQLVQSGAEVKKPGSSVKVSCKASGYTFTNYGMYWVRQAPGQGLEWMGWIDTETGRPTYADDFKGRFTFTADKSTSTAYMELSSLRSEDTAVYYCARWSGDTTGIRGPWFAYWGQGTLVTVSSASTKGPSVFPLAPSSKSTSGGTAALGCLVKDYFPEPVTVSWNSGALTSGVHTFPAVLQSSGLYSLSSVVTVPSSSLGTQTYICNVNHKPSNTKVDKKVEPKSCDKTHTCPPCPAPEAAGGPSVFLFPPKPKDTLMISRTPEVTCVVVDVSHEDPEVKFNWYVDGVEVHNAKTKPREEQYNSTYRVVSVLTVLHQDWLNGKEYKCKVSNKALPAPIEKTISKAKGQPREPQVYTLPPSREEMTKNQVSLTCLVKGFYPSDIAVEWESNGQPENNYKTTPPVLDSDGSFFLYSKLTVDKSRWQQGNVFSCSVMHEALHNAYTQKSLSLSPGK
light: ETVLTQSPATLSLSPGERATLSCRASESVSTLMHWYQQKPGQQPRLLIYGASNLESGVPARFSGSGSGTDFTLTISSLEPEDFAVYFCQQSWNDPWTFGGGTKVEIKGGSGGGGSGGDIRMTQSPSSLSASVGDRVTITCLASEDIYSDLAWYQQKPGKSPKLLIYNANGLQNGVPSRFSGSGSGTDYTLTISSLQPEDVATYFCQQYNYFPGTFGQGTKLEIKRTVAAPSVFIFPPSDEQLKSGTASVVCLLNNFYPREAKVQWKVDNALQSGNSQESVTEQDSKDSTYSLSSTLTLSKADYEKHKVYACEVTHQGLSSPVTKSFNRGEC
As for B5, the “Potency IC50 (nM), HMVEC-d hVEGF165” value in test [1] stood at 0.188 nM. Besides, the “Potency IC50 (nM), NIH-3T3 hPDGF-BB” value in test [2] came out at 0.377 nM.
